Data from PMC6114939.

What was measured:
[1] = target: p85α (UniProt P27986); assay: co-immunoprecipitation, immunoblot; settings: sites Y64
[2] = target: p85α (UniProt P27986); assay: His beads pull-down after kinase assay; settings: reference: WT His-PFKP with GST-EGFR; sites Y64

**Q.** For “PFKP (platelet isoform of phosphofructokinase 1) (from UniProt Q01813) Flag-rPFKP Y64F”, which “binding against the reference” value ([1]; reference: WT Flag-rPFKP) is on record?
**A.** The value was “lost”.

**Q.** How did the “binding against the reference” value [2] turn out when “PFKP (platelet isoform of phosphofructokinase 1) (from UniProt Q01813) His-PFKP Y64F with GST-EGFR” was run?
**A.** The value was “lost”.

**Q.** For “PFKP (platelet isoform of phosphofructokinase 1) (from UniProt Q01813) Y64F”, which “binding against the reference” value ([1]; reference: wild-type tagged PFKP (presumed)) is on record?
**A.** The value was “lost”.
